Source: patent publication US8962819B2, “Anti-C5 alpha antibodies” (Adienne S.A., priority 2002, dated 2015)
“Also recorded” adds a separate entry of the source.

Key:
Assay type in all cases: biochemical
[1] = target: T1, C5 (Homo sapiens, UniProt P01031); experiment: Hemolytic assay, alternative pathway (rabbit erythrocytes); details: 600 ng scFv, increasing amounts of C5, FIG. 4B
T1 construct: C5 alpha and beta subunits were obtained by incubating 50 μg of C5; purchased Quidel
Protocol: Values from spectrophotometric reading performed at 412 nm to measure inhibition of lysis of sheep erythrocytes coated with EAC1-3b, through the classical complement activation pathway (A Panel); or of rabbit erythrocytes in order to measure the alternative pathway of complement activation (B Panel). Increasing amounts of C5 were mixed with 600 ng of the scFv antibody of the invention with an unrelated scFv, or with GVBS in which the scFv of the invention were solubilised, as described in example 9. After incubation with serum lacking in C5, obtained from a patient with selective deficiency of this complement component, the percentage of hemolysis was measured compared to the 100% value obtained by lysing erythrocytes in an equal volume of distilled H2O and a blank obtained by resuspending eythrocytes in GBVS. Having assessed the characteristics of the inhibition of the classical activation pathway of factor C5 by the TS-A12/22 antibody, it was then verified whether there was inhibition also of the alternative pathway of C5 activation, and at which level. […] After incubation for 30 minutes at 37° C., the percentage of erythrocyte lysis was measured by comparison to a 100% value obtained by lysing erythrocytes with an equal volume of distilled of H2O and to a blank consisting of erythrocytes re-suspended in GBVS. […]

[2] = target: T2, C5 hemolytic activity in mouse serum (Mus musculus, UniProt P06684); experiment: Inhibition of C5 hemolytic activity in serum; details: FIG. 5D
T2 construct: from tissue; host or cells: mouse serum
T2 sequence (P06684 679-1680 limits assumed): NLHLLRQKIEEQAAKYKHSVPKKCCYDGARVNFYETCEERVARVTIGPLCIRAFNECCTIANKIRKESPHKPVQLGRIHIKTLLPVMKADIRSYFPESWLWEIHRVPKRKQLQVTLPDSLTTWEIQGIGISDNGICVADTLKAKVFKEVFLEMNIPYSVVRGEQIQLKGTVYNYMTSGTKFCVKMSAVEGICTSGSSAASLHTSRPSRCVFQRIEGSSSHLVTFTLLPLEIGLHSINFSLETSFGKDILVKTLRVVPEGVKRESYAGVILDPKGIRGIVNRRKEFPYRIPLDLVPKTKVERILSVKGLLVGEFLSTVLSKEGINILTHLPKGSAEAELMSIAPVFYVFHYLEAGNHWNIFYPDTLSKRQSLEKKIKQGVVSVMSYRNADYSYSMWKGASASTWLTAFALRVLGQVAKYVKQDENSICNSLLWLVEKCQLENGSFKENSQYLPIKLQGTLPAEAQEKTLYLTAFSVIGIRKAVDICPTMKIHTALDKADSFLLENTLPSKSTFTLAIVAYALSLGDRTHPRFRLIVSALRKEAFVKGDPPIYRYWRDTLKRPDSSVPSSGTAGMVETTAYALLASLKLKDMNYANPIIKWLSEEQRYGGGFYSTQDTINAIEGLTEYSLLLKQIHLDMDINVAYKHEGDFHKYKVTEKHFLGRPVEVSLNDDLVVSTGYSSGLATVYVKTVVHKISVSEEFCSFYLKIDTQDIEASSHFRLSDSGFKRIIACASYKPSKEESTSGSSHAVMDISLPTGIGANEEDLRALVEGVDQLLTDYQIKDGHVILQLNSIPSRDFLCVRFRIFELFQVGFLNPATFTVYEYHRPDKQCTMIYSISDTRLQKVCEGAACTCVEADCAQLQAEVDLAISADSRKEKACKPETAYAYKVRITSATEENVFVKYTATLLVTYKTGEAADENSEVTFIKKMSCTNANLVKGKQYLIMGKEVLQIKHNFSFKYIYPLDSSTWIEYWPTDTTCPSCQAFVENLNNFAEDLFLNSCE
T2 sequence (P06684 19-674 partner limits assumed): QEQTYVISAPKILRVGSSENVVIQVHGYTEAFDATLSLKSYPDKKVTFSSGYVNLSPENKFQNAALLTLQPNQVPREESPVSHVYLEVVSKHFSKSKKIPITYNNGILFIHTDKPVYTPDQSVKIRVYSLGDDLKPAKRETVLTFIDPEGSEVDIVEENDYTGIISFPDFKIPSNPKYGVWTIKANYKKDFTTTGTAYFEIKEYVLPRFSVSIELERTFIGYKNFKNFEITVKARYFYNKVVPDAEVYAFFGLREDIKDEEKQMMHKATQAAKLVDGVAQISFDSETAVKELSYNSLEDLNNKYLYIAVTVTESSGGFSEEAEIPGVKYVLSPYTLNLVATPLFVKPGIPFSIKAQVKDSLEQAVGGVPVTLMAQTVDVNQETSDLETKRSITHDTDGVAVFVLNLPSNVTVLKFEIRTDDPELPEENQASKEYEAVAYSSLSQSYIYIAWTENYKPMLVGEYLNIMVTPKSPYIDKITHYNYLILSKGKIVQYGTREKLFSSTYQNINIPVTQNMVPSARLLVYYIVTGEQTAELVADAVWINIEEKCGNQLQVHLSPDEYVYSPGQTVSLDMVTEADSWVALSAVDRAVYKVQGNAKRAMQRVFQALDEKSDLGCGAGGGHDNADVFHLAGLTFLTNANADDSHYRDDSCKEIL
Protocol: (§1) Measurements were performed as described in example 8, using sera from human (panel A), rat (panel B), rabbit (panel C), mouse (panel D). Since the amino acid sequence corresponding to the cleavage site of convertase on the C5 alpha chain is conserved in several animal species, it was furthermore evaluated, by hemolytic assay, the ability of TS-A12/22 antibody to inhibit conversion of C5 to C5a also in rabbit, mouse and rat sera.

[3] = target: T3, C5 hemolytic activity in human serum (Homo sapiens, UniProt P01031); experiment: Inhibition of C5 hemolytic activity in serum; details: FIG. 5A
T3 construct: from tissue; host or cells: human serum
T3 sequence (P01031 678-1676 limits assumed): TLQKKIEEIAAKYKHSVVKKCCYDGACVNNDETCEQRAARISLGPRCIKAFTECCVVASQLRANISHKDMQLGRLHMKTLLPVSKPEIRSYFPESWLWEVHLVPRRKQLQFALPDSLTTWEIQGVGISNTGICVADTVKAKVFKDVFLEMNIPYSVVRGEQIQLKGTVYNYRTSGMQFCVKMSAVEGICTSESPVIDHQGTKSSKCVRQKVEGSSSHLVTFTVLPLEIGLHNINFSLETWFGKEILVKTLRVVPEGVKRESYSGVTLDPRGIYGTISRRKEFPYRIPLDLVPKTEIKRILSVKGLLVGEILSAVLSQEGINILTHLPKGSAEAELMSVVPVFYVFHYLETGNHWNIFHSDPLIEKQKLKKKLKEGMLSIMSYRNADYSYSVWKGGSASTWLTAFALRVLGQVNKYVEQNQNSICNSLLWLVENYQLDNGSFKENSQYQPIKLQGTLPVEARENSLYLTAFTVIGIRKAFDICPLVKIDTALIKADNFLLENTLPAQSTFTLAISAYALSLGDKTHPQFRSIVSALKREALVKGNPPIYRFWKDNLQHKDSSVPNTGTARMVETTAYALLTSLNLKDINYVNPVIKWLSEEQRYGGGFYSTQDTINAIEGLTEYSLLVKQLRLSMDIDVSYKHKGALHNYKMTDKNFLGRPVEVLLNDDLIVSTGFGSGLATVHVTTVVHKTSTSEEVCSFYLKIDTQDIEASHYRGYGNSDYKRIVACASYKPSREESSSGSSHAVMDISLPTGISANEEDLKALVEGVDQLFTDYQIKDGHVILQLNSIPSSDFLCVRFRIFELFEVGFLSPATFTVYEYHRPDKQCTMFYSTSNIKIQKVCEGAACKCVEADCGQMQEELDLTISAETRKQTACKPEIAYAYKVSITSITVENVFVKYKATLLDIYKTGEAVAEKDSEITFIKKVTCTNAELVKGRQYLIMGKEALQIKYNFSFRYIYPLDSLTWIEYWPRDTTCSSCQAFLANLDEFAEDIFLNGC
T3 sequence (P01031 19-673 partner limits assumed): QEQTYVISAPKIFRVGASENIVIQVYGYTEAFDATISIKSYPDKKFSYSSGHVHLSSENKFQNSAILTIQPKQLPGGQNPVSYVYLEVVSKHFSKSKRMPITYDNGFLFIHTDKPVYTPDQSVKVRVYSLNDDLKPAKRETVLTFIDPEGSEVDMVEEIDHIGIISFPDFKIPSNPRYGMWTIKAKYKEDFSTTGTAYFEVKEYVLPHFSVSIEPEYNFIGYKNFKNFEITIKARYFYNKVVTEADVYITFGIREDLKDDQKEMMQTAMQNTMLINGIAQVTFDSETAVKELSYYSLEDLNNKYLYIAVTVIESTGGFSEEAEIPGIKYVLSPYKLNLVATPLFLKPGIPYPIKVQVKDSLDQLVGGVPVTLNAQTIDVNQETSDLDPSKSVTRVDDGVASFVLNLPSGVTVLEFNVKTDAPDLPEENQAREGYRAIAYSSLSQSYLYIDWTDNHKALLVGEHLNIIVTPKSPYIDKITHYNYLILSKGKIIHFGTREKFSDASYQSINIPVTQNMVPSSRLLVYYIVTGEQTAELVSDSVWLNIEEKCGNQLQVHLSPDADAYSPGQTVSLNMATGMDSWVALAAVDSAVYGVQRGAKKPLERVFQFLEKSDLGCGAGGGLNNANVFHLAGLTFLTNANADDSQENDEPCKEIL
Protocol: as §1

[4] = target: T4, C5 hemolytic activity in rat serum (Rattus norvegicus, UniProt P08650); experiment: Inhibition of C5 hemolytic activity in serum
T4 construct: from tissue; host or cells: rat serum
T4 sequence (P08650 679-1681 limits assumed): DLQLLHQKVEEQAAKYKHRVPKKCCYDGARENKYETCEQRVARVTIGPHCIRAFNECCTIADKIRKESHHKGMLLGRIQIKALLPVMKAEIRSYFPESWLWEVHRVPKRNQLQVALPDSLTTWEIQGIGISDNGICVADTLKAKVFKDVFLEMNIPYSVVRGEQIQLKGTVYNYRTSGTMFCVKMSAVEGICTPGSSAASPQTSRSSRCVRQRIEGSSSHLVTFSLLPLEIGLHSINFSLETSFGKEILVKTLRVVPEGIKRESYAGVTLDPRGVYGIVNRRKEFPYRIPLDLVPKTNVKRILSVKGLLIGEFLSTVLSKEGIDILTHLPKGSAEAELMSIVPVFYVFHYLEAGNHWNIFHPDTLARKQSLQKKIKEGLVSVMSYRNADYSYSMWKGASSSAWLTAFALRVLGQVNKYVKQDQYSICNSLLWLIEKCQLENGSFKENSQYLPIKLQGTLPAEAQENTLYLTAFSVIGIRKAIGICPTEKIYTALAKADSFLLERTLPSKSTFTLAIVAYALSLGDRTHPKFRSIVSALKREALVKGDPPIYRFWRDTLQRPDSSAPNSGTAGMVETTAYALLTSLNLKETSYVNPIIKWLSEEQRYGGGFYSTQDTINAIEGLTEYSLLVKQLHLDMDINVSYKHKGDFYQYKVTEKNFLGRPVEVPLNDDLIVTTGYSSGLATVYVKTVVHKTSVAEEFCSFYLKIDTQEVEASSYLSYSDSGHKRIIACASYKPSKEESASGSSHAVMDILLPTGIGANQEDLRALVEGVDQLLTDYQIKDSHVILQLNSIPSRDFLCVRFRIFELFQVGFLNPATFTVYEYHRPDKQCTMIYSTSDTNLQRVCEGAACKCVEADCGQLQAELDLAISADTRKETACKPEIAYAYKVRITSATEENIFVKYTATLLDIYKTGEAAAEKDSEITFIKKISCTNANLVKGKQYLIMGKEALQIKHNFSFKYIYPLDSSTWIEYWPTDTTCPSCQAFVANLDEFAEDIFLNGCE
T4 sequence (P08650 19-674 limits assumed): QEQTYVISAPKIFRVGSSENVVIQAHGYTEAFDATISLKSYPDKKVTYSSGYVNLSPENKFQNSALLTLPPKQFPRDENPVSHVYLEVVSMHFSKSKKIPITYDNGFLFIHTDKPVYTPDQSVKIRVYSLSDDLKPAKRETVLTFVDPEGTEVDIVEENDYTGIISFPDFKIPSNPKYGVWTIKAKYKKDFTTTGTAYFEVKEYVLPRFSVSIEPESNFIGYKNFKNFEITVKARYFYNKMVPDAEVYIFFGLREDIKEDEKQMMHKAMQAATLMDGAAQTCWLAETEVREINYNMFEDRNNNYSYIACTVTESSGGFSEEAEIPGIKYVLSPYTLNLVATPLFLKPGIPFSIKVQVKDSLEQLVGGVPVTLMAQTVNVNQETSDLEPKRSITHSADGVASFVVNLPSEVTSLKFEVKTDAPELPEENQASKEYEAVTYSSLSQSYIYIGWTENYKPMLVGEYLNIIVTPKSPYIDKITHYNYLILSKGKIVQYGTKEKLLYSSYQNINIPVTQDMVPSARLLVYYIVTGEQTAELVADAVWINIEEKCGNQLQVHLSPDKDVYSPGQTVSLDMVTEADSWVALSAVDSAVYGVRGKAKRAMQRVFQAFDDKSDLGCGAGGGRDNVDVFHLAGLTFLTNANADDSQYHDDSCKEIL
Protocol: as §1

[5] = system: C5 hemolytic activity in rabbit serum; experiment: Inhibition of C5 hemolytic activity in serum
Protocol: as §1

[6] = target: T1, C5; experiment: Haemolytic assay / TCC ELISA with EAC1-3b sheep erythrocytes and C5 depleted serum; details: FIG. 1B
Protocol: (§2) Panel A) The ELISA assay measures the amount of C5a fragment released in the supernatant after enzymatic cleavage of C5, using antibodies anti-C5 as described in example 6. […] Sheep erythrocytes sensitised with antibodies and coated until the C3b (EAC1-3b) complement step were added to the mixture of TS-A12 or TS-A12/22 and C5, and the mixture was further incubated for 30 minutes at 37° C. (panel B).
Sheep erythrocytes (SBRC: Sheep red blood cells) were sensitised with sub-agglutinating amounts of rabbit IgM (EA). […]
(§3) The obtained anti-C5 scFv fragments were further characterised for their ability to inhibit the hemolytic activity of C5 or, in other words, to block conversion of the C5 component to C5a. […] At the end of this procedure, cell lysis was measured as percentage of the control of total lysis in distilled H2O (see FIG. 1, panel B). The inhibition of C5a and TCC production by the scFv TS-A12 and TS-A12/22 was measured by means of ELISA using the monoclonal antibody 17/5 as the capture antibody and antibody G25/2 as detection antibody according to what has been described in Opperman et al., 1991, Complement Inflamm. […] The presence of TCC was measured using antibody aE11 as the capture antibody and a biotinylated anti-C5 antibody (SIGMA-ALDRICH®) followed by alkaline phosphatase-conjugated streptavidin, as described by Tedesco et al. (1997, J Exp. Med. 185:1619).

[7] = target: T1, C5; experiment: ELISA of C5a released after cleavage of C5 by C5 convertase; details: FIG. 1A, classical pathway
Protocol: as §2, §3

T1 sequence (P01031 678-1676 limits assumed): as the sequence (P01031 678-1676 limits assumed) above
T1 sequence (P01031 19-673 partner limits assumed): as the sequence (P01031 19-673 partner limits assumed) above

B1: TS-A12/22: anti-C5 scFv obtained from TS-A12 by VL chain shuffling; VH3/V-48 and Vλ3/V2-14; amino acid sequence SEQ ID NO:6 (protein, listed as Homo sapiens)
scFv: DIRMTQSPDSLAVSLGERATINCKSSQSVLYSSNNKNYLAWYQQKPGQPPKLLIYWASTRESGVPDRFSGSGSGTDFTLTISSLQAEDVAVYYCQQYYSTPQLTFGGRTKVDIKSGGSTITSYNVYYTKLSSSGTQVQLQQSEGGVVQPGRSLRLSCAASGFTFSSYGMNWVRQAPGKGLEWVSYISSSSSTIYYADSVKGRFTISRDNSKNTLYLQMNSLRAEDTAVYYCARGPGMDVWGQGTTVTVSS
Q: With B1 as the molecule, how does the “inhibition of lysis of rabbit erythrocytes through the alternative pathway” value [1] read?
A: Its value is “inhibits”.

Q: What about the “inhibition of hemolytic activity in serum” value (“inhibition … in serum” below) [2] of the same molecule?
A: The value was “capable of inhibiting”.

Q: And the “inhibition … in serum” value [3]?
A: The value was “capable of inhibiting”.

Q: What about the “efficiency of inhibition compared with human serum” value [4] of the same molecule?
A: Its value is “practically similar to that of human serum; also recorded: higher”.

Q: What about the “inhibition … in serum” value ([4]; FIG. 5B) of the same molecule?
A: Its value is “capable of inhibiting”.

Q: What about the “efficiency of inhibition compared with human serum” value [5] of the same molecule?
A: Its value is “higher”.

Q: And the “inhibition … in serum” value ([5]; FIG. 5C)?
A: Its value is “capable of inhibiting”.

Q: And the “inhibition of formation of TCC” value [6]?
A: Its value is “inhibit almost completely”.

Q: What about the “inhibition of formation of C5a” value [7] of the same molecule?
A: Its value is “inhibit almost completely”.
